# Measured values taken from the DeepSol protein solubility set.
# Test: soluble on expression in E. coli; label from the status in PepcDB or PDB records
row,Sequence,soluble on expression in E. coli
1,MGSDKIHHHHHHACDDYLDDVPKGQKIPKTWEDYNAFIRNNFSYHFLDPDQLAVLAGDIFKLPSAVTSPSLTRANYYADESVNRIDLMTGNDKNPYFNAYEGLFAWNLIVEDVPDATECTEVQRRQLIAQGRVLRAMHYFYLANFYADQYDEATKDKLSVPLITSASVEAPSPQVTLQTIYEFMLDDLNKAVEDLPVHSESILHPNRALGYGMLARVYLSVGDYDNALKNASLALEQNDQLFNWIDLYEADKERYDDPKNYTSGVAGNPETDNVENYIYCYGSSTSGWTGLNNTSYAISPERAARFEKGDTRLLTHWKSRVSSSGIPYYAGIYALEMNKGGMRSPEMYYIKAECLARKGGEANIREAMELVNKVRKTRILLEFYQDWTAATTKEAVEKIIRDKESEYIQTQVIYCDYRRLNKDPEYARTFPRTIEGKEYILKSDSHLWIMPFPREAVSNPGNGTITQNVEK,not soluble
2,MTSLYLASGSPRRQELLAQLGVTFERIVTGIEEQRQPQESAQQYVVRLAREKARAGVAQTAKDLPVLGADTIVILNGEVLEKPRDAEHAAQMLRKLSGQTHQVMTAVALADSQHILDCLVVTDVTFRTLTDEDIAGYVASDEPLDKAGAYGIQGLGGCFVRKINGSYHAVVGLPLVETYELLSNFNALREKRDKHDG,soluble
3,MAHHHHHHMMRERAAALDDLNALLTVNKDHPQGLALRMSLNTQLGNLVDAHRDGKHLVRVYKALNKPDKSQQTSEKVHRLERYTVRWTALSDLWSQPVGAYTAATNDAVLMRKYRECVDLLARIIHEFSMESVELRLRRAACALAADDNIAATQELKYVTQRSPQNLDAIALNAQALRRLGALDQSMSELRRCLNLDPEYAPCANLHKLIRQQQRMTKNIEKRLQEKKFEAVVQLIAETRAAEPHAPYEEQLAAWHCEALVSLRSTDEGIRVCQALVDRYDGANNPTVFDAHIRLAELHLLDDNIAAAEAALQKAREIRQHDGKVEEMRLKIEKLKRTGPRKDYYKILGLKKTASAQEIRRAYRKLAKSSHPDQLRSKDMTDREREKQEKMFRDVNEAKEVLLDEEKRARYDSGEDVNQPAGQRGEPFFGSHFAGGFPGGFPGGFPGGFPGGFPGGFHQQRDGGVHQQFFFFNREN,not soluble
4,MALTEERVLEALRTVMDPELGKDLVSLGMVDEVRVEGGRVDLLVNLTTPACPLKGQIEADIRRALAPLGAEEVRVRFGGGVRPPERYALPGVKHVVAVASGKGGVGKSTVAANLALALSREGAKVGLLDADLYGPSQAKMFGLEGMRLKVDQDRRILPLEAHGIKVLSIANIVPPGQALAWRGPILHGTLKQFLQDVNWGELDYLVVDLPPGTGDVQLSLSQLTQVSGGVIVTTPQEVALIDAERAADMFRKLQVPVLGVLENMSAFLCPHCGKPTPIFGEGGGRRLAERLKTRFLGEIPLTLALRESGDRGVPVLAQDPEGLEAQAFLKAARELAAALSVQTFLPLPMA,soluble
5,MRVLVSGGGTGGHIYPALALIREIKKLNPEARFLYIGTENGLESTIVPKAGIPFQSIVISGFKRKISLDNVKTVMRFLKGVQDSKRYIRRFNPDIVIGTGGYVCGPVVYAAAKLGIPTIVHEQNSVPGVTNKFLSRYVDKVAVCFEAAAEHFPQSKVVMTGNPRASEVMDQNGMKGKRSVGLSLPKKSVLIFGGSRGARPINDAFVEAIEQFGNKSYEILYVTGEVHYDKVMEAVKQKGNPNNVIIKPFIHNMPEVLTGVDLVVSRAGATTLAELTALGKPSVLIPSPYVTNNHQEKNARSVVDKGAAKMLLEKDLTAETLIRDIDEILLDAQTLQNMKLAAGQLGIPDAANKLYEVMNKLVKK,not soluble
6,MSLAVKPIPEGQHSITPYLAINDAAKAIEFYKQAFGAKEMFRLDAPGGRVGHAELRIGDSSLMLGDPCDMEGGLTASQKLSGAGVGLHLYVEDCDKVYAQALAAGGIQLHPLTDQFYGDRSGTLKDPFGNIWFVSTHKEDLTPDEIRARAAKMFGEGHHHHHH,soluble
7,MAHHHHHHMENHKDDAVLLKHGWCEMLKGGVIMDVKSVEQAKIAEEAGAIGVMVLENIPSELRNKEGVARSVDPSKVEEIKKCVSINVLAKVRIGHFVEAQILEELKIDMIDESEVLTIADEMHHIDKHKFKTPFVCGCTNLGEALRRISEGASMIRTKGEAGTGNIIEAIKHIRTVNNEIKYLCSLSDSEVYHFAKKINAPIDLVLLTKKLKRLPVVNFAAGGVATPADAAMCMQLGMDGVFVGSGIFESENPRKMAASIVSAVSNFNNPKILLDVSMNLGKAMCGSTRVSDKWKNKNEEHTKFLTPQ,not soluble
